According to the supplement of paper PMC9170038:

Test system: MS2 coat protein
Experiment: apparent KD of MS2 coat protein; designed switch direction (-1 OFF switch, 1 ON switch): -1; higher = weaker reporter binding
Outline: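 On Illumina chips, designed RNA switches with common flanks were made by stalled E. coli RNA polymerase. Titrations with SNAP-549-labelled MS2 coat protein, doubling from 0.7 or 1.5 nM to 3 µM, were done with no input, with 200 uM small-molecule ligand, or with an oligonucleotide input. Apparent KD is the median per design over clusters, from curve fits of normalised cluster fluorescence.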

[1] = input ligand: microRNA oligo, concentration not stated
[2] = Eterna round: R95, input ligand: FMN 200 uM
[3] = Eterna round: R95, input ligand: microRNA oligo, concentration not stated
[4] = Eterna round: R95, input ligand: none

Sequence	apparent KD of MS2 coat protein (input ligand: FMN 200 uM) [nM]	apparent KD of MS2 coat protein [1] [nM]	apparent KD of MS2 coat protein (input ligand: none) [nM]	apparent KD of MS2 coat protein [2] [nM]	apparent KD of MS2 coat protein [3] [nM]	apparent KD of MS2 coat protein [4] [nM]
UCUCCCGCUCGAGGAUAUCCAUAGAGCAACUGAGGAGAAGGCGAGCGUCCUAAACAUGAGGAUCACCCAUGUGACCUCCCGAAC [Zabiledila] (Eterna round: R96, puzzle: Exclusion NG 1)	55	41.2	39.1			
ACAAGCUUUGAUAUCCUUAACAUGAGGAUCACCCAUGUUCGUCUUAUGAUGGUCUGAUCCCUGAGGAUCGGACCGUU [JL-sv1-2.08 Brourd Mod] (puzzle: Sensor v3, turn-off variant 1)				33.7	96.2	35.5
AAGGUGUUAGGAUAUCGGAGUUUGAGGCAGACGGGAAUUUUCGAGAAGGAACAUGAGGAUCACCCAUGUAGUAU [JR_Exclu4_Sub039] (puzzle: Exclusion 4)					21.6	
AGGAAGCAAGGAUAUACGAGGAGAAGGUGUAGAUUUAAAGGACAUGAGGAUCACCCAUGUAGAAGGUGCGAGAA [JR_Exclu2_Sub047] (puzzle: Exclusion 2)				62.7	31.8	41.4
CGUCUGUAAGGAUAUGGUUGCAUCAACAUGAGGAUCACCCAUGUAACGUGGGACUAGUGAUUAGAAGGUACGAACG [EX5 #60] (Eterna round: R97, puzzle: Exclusion 5)	93.8		118			
GUCCUACAUGAGGAUCACCCAUGUGAGGAUAUGCGAUUAGCUGCUAGGUAGUUAGUAUGUAGAAGGCGCGUGAA [EX1 #78] (Eterna round: R97, puzzle: Exclusion 1)	15.6		14.4			
AAGAAGUGAGGAUAUCACCCUGCGCUACAGUUGCGCAGGCAUGAGAAGGCACUUGAGGAUCACCCAAGUCCUAU [Bitiri] (Eterna round: R97, puzzle: Exclusion 4)	212		23.6			
UGUACUAUGCGUGCUGACAUGCGUAGUGCAGCAGGUGUUACAUGAGGAUCACCCAUGUCCUCAUUUGCUCGUCUUAA [Mat - Sensor v3 - Turn-off var 2 - D17] (puzzle: Sensor v3, turn-off variant 2)				205	219	177
CCGCAAAAGGAGGAUAUCGUAUCGGAUACGAUACGAGAAGGCUUUACAUGAGGAUCACCCAUGUGUCCUAGCGG [Fiskers Ex 6 - 47] (puzzle: Exclusion 6)					13.4	
AAGAAGAAGUAAGGAUAUGAAGAUUUGGUGAUGACAUGAGGAUCACCCAUGUGAAAACAAUAAGAUCAGAAGGUAUAAGAAGAA [AK ExNG2-2.2] (Eterna round: R96, puzzle: Exclusion NG 2)	104	61.6	112			
ACAUUCAGAGGAUAUGCGCAUAGAUAAGACUUUUUUUUUUAACAUGAGGAUCACCCAUGUAGAAGGCUGUAACA [Ex2 #49] (Eterna round: R97, puzzle: Exclusion 2)	21.4		21.7			
AGAAACAGAGGAUAUCGCGGACAGCACAUGAGGAUCACCCAUGUGAUGCUCCGCGGGCCGCGAGAAGGCUGAAAUG [Rateatge] (puzzle: Exclusion 5)				29.3	12.2	14.1
CUAACAUGCUGGUGAUCAUACAUGAGGAUCACCCAUGUAACAAGCUUUUUGCUCGUCUUAUAAUUUAAGAUCACCAG [Stov1/7-A4] (Eterna round: R97, puzzle: Sensor, turn-off variant 1)	17		14.1			
AUCAGCUCGUCAGGAUAUACAUGAGGAUCACCCAUGUGGUCAAUAGCAGCUUCGGCUGCAUACAUGUAGAAGGGACGAGCUGAU [ENG2/7-B2] (Eterna round: R96, puzzle: Exclusion NG 2)	28.4	894	101			
